Target: Tyr24 (position 24, …)
Test: NMR
Settings: 10 C; no added salt (NaCl, KCl absent); 10 mM phosphate only; 10 mM phosphate buffer (initial pH 7), 0.1 mM DSS; soluble, predominantly disordered repetitive domain; about 1.5-2.2 mM protein

B1: MaSp1 repetitive domain 15-mer (15 contiguous copies of the consensus repeat of major ampullate spidroin 1) (Nephila clavipes (Trichonephila clavipes); … (protein)
chain: GRGGLGGQGAGAAAAAGGAGQGGYGGLGSQGTSGRGGLGGQGAGAAAAAGGAGQGGYGGLGSQGTSGRGGLGGQGAGAAAAAGGAGQGGYGGLGSQGTSGRGGLGGQGAGAAAAAGGAGQGGYGGLGSQGTSGRGGLGGQGAGAAAAAGGAGQGGYGGLGSQGTSGRGGLGGQGAGAAAAAGGAGQGGYGGLGSQGTSGRGGLGGQGAGAAAAAGGAGQGGYGGLGSQGTSGRGGLGGQGAGAAAAAGGAGQGGYGGLGSQGTSGRGGLGGQGAGAAAAAGGAGQGGYGGLGSQGTSGRGGLGGQGAGAAAAAGGAGQGGYGGLGSQGTSGRGGLGGQGAGAAAAAGGAGQGGYGGLGSQGTSGRGGLGGQGAGAAAAAGGAGQGGYGGLGSQGTSGRGGLGGQGAGAAAAAGGAGQGGYGGLGSQGTSGRGGLGGQGAGAAAAAGGAGQGGYGGLGSQGTSGRGGLGGQGAGAAAAAGGAGQGGYGGLGSQGTS
**Q.** With B1 as the protein, how does the pKa read?
**A.** 10.25 ± 0.02
